Molecular target: the molecule itself
Assay: cryo-EM structure

B1: full-length chicken STING, cGAMP-bound (natural protein, UniProt E1C7U0 1-379, looked up)
chain: MPQDPSTRSSPARLLIPEPRAGRARHAACVLLAVCFVVLFLSGEPLAPIIRSVCTQLAALQLGVLLKGCCCLAEEIFHLHSRHHGSLWQVLCSCFPPRWYLALLLVGGSAYLDPPEDNGHSPRLALTLSCLCQLLVLALGLQKLSAVEVSELTESSKKNVAHGLAWSYYIGYLKVVLPRLKECMEELSRTNPMLRAHRDTWKLHILVPLGCDIWDDLEKADSNIQYLADLPETILTRAGIKRRVYKHSLYVIRDKDNKLRPCVLEFASPLQTLCAMSQDDCAAFSREQRLEQARLFYRSLRDILGSSKECAGLYRLIAYEEPAEPESHFLSGLILWHLQQQQREEYMVQEELPLGTSSVELSLQVSSSDLPQPLRSDCP
With B1 as the protein, how does the “stoichiometry N” value read?
Its value is 2.
